Assay results taken from paper PMC4320098, “Identification and Characterization of a Novel Phosphodiesterase from the Metagenome of an Indian Coalbed” (PLoS ONE, 2015).

Assays:
[1] = system: O=[N+]([O-])c1ccc(OP(=O)(O)Oc2ccc([N+](=O)[O-])cc2)cc1; test: purified protein; format: biochemical, uncultured organism; conditions: pH 8.5; 25.0 °C
PdeM = PdeM (uncultured organism, UniProt S5THN5); test: p-nitrophenol release, absorbance […] nm, Michaelis-Menten non-linear fit; format: biochemical; conditions: 2 mM MnCl2, 50 mM Tris-HCl pH 8.5, 5 mM beta-ME, 10 mM NaCl, 25 °C, 30 min
Chain of PdeM (S5THN5 entry or part of it): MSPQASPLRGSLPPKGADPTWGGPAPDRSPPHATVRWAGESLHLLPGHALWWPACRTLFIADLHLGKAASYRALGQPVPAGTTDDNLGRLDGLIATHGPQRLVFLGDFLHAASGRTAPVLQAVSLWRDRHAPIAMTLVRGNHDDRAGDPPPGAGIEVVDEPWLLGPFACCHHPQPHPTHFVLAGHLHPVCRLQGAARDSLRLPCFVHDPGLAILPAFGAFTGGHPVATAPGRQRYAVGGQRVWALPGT

Compound | Km [1] [mM] | Km (PdeM) [mM]
PdeM (uncultured organism) | 10.21 ± 1.6 | 
O=[N+]([O-])c1ccc(OP(=O)(O)c2ccccc2)cc1 [pNPPP] |  | 7.2 ± 1.4
